Here are results for four molecules from patent US20070134813A1.

Test [1] addresses T1, C-reactive protein (human) (UniProt P02741).
T1 sequence (looked up): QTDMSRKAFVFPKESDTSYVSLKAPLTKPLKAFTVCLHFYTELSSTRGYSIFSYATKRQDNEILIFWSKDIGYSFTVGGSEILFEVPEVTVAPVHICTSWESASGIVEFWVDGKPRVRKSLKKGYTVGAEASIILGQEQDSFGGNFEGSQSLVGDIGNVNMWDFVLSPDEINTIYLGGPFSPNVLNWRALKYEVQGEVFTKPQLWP
The test can be described thus: SPR, Fn 1 mg/mL in the presence of 50 uM 19-mer injected over antibody-captured CRP.

Test [2] addresses T1, C-reactive protein (human). The test can be described thus: SPR, Fn 1 mg/mL in the presence of 50 uM 9-mer injected over antibody-captured CRP. On the technique in general: SPR reads the build-up and loss of mass on a sensor chip optically.
Test [3] deals with T1, C-reactive protein (human). The test can be described thus: SPR (Biacore X), Fn 1 mg/mL without inhibitor injected over CRP captured on immobilized anti-CRP antibody, 25 C.
The target in test [4] is T1, C-reactive protein (human). The test is described as follows: SPR, Fn 1 mg/mL in the presence of 50 uM 10-mer injected over antibody-captured CRP.
In test [5] the target is T1, C-reactive protein (human). The test can be described thus: SPR, inhibition of Fn (1 mg/mL) binding to antibody-captured CRP at 50 uM peptide.

For “fibronectin (from UniProt P02751 32-2477)”, the SPR Response (RU) in test [1] was determined as 76 RU; in test [2] it was 119 RU; in test [3], 118 RU; in test [4], 76 RU. For PRCGNPDVA [9-mer (SEQ ID NO.: 16)], the % Inhibition – broadly, the change of the read-out against control, counted positive when it falls – in test [5] turned out to be 0%.

In test [5], NYNFFPRKPK [10-mer (SEQ ID NO.: 12)] gave a % Inhibition of 35.6%. In test [5], PRCGNPDVANYNFFPRKPK [19-mer (SEQ ID NO.: 11)] returned a % Inhibition of 35.6%.
